Reference: article PMC6458054 (Nature, 2017)

B1: Flag-ALKBH3 (enzyme)
chain: MEEKRRRARVQGAWAAPVKSQAIAQPATTAKSHLHQKPGQTWKNKEHHLSDREFVFKEPQQVVRRAPEPRVIDREGVYEISLSPTGVSRVCLYPGFVDVKEADWILEQLCQDVPWKQRTGIREDITYQQPRLTAWYGELPYTYSRITMEPNPHWHPVLRTLKNRIEENTGHTFNSLLCNLYRNEKDSVDWHSDDEPSLGRCPIIASLSFGATRTFEMRKKPPPEENGDYTYVERVKIPLDHGTLLIMEGATQADWQHRVPKEYHSREPRVNLTFRTVYPDPRGAPW
B2: Flag-ASCC2 (natural protein)
chain: MPALPLDQLQITHKDPKTGKLRTSPALHPEQKADRYFVLYKPPPKDNIPALVEEYLERATFVANDLDWLLALPHDKFWCQVIFDETLQKCLDSYLRYVPRKFDEGVASAPEVVDMQKRLHRSVFLTFLRMSTHKESKDHFISPSAFGEILYNNFLFDIPKILDLCVLFGKGNSPLLQKMIGNIFTQQPSYYSDLDETLPTILQVFSNILQHCGLQGDGANTTPQKLEERGRLTPSDMPLLELKDIVLYLCDTCTTLWAFLDIFPLACQTFQKHDFCYRLASFYEAAIPEMESAIKKRRLEDSKLLGDLWQRLSHSRKKLMEIFHIILNQICLLPILESSCDNIQGFIEEFLQIFSSLLQEKRFLRDYDALFPVAEDISLLQQASSVLDETRTAYILQAVESAWEGVDRRKATDAKDPSVIEEPNGEPNGVTVTAEAVSQASSHPENSEEEECMGAAAAVGPAMCGVELDSLISQVKDLLPDLGEGFILACLEYYHYDPEQVINNILEERLAPTLSQLDRNLDREMKPDPTPLLTSRHNVFQNDEFDVFSRDSVDLSRVHKGKSTRKEENTRSLLNDKRAVAAQRQRYEQYSVVVEEVPLQPGESLPYHSVYYEDEYDDTYDGNQVGANDADSDDELISRRPFTIPQVLRTKVPREGQEEDDDDEEDDADEEAPKPDHFVQDPAVLREKAEARRMAFLAKKGYRHDSSTAVAGSPRGHGQSRETTQERRKKEANKATRANHNRRTMADRKRSKGMIPS

Columns and labels:
[1] = target: N-terminally deleted His-ASCC3 (human, UniProt Q8N3C0 401-2202); assay: pull-down
[2] = target: full-length (FL) His-ASCC3 (human, UniProt Q8N3C0 1-2202); assay: pull-down
Chain of full-length (FL) His-ASCC3 (Q8N3C0 whole entry): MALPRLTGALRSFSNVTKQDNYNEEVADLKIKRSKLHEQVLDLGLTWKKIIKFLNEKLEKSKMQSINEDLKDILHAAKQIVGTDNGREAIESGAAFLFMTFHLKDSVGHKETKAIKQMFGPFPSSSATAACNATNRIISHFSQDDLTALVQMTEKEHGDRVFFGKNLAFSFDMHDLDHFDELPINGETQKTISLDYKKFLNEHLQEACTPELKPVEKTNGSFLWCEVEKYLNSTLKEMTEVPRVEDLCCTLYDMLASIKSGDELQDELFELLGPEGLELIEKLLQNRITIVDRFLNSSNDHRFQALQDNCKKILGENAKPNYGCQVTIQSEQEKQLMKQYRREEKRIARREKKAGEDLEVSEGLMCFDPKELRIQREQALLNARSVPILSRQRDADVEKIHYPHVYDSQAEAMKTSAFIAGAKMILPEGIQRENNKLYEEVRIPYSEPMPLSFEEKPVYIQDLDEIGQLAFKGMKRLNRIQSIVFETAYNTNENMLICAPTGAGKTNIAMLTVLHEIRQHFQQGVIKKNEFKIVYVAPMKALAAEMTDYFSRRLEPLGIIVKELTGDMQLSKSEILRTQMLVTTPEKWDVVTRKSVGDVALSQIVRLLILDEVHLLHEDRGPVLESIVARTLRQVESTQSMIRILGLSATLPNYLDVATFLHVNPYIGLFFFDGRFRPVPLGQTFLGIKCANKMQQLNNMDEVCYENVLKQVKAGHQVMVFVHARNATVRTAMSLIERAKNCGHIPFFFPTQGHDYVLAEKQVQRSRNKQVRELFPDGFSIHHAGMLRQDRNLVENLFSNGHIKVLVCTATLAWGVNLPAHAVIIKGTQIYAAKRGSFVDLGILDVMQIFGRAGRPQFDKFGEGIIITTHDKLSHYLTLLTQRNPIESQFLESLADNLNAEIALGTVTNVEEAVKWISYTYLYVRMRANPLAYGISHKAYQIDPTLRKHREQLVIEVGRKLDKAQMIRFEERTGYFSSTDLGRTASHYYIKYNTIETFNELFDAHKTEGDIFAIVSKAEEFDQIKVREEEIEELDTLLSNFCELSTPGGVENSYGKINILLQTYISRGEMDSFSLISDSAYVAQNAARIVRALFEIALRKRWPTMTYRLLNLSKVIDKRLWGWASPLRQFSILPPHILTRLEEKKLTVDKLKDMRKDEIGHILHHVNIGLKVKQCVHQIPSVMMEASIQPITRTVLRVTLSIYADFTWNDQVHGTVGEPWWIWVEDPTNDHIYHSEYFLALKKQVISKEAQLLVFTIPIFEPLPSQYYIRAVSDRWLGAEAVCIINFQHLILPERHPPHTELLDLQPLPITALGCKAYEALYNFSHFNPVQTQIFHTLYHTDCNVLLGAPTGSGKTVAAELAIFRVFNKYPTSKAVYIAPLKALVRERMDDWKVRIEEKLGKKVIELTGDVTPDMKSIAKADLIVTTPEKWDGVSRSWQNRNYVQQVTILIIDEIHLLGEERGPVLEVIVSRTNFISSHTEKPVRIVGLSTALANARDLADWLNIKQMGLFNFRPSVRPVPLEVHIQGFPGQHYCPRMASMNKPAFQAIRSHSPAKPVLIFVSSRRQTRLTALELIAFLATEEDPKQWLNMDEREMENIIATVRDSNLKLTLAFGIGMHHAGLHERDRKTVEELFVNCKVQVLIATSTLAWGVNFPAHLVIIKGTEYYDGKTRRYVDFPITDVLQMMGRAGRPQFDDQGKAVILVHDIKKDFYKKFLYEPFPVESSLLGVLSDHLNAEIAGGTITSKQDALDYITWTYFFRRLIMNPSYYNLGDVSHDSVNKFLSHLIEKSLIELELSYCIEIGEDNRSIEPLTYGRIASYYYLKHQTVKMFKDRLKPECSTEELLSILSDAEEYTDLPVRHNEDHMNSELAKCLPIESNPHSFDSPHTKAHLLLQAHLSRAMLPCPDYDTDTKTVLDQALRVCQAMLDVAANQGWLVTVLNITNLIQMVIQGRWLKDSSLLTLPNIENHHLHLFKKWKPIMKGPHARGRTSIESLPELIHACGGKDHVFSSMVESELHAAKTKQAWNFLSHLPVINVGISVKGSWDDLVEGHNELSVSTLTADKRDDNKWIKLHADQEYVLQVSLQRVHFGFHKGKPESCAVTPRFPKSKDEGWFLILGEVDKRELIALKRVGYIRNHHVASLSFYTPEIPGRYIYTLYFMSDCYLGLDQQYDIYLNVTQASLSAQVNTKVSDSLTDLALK

Chain of N-terminally deleted His-ASCC3 (Q8N3C0 401-2202, stated change not applied): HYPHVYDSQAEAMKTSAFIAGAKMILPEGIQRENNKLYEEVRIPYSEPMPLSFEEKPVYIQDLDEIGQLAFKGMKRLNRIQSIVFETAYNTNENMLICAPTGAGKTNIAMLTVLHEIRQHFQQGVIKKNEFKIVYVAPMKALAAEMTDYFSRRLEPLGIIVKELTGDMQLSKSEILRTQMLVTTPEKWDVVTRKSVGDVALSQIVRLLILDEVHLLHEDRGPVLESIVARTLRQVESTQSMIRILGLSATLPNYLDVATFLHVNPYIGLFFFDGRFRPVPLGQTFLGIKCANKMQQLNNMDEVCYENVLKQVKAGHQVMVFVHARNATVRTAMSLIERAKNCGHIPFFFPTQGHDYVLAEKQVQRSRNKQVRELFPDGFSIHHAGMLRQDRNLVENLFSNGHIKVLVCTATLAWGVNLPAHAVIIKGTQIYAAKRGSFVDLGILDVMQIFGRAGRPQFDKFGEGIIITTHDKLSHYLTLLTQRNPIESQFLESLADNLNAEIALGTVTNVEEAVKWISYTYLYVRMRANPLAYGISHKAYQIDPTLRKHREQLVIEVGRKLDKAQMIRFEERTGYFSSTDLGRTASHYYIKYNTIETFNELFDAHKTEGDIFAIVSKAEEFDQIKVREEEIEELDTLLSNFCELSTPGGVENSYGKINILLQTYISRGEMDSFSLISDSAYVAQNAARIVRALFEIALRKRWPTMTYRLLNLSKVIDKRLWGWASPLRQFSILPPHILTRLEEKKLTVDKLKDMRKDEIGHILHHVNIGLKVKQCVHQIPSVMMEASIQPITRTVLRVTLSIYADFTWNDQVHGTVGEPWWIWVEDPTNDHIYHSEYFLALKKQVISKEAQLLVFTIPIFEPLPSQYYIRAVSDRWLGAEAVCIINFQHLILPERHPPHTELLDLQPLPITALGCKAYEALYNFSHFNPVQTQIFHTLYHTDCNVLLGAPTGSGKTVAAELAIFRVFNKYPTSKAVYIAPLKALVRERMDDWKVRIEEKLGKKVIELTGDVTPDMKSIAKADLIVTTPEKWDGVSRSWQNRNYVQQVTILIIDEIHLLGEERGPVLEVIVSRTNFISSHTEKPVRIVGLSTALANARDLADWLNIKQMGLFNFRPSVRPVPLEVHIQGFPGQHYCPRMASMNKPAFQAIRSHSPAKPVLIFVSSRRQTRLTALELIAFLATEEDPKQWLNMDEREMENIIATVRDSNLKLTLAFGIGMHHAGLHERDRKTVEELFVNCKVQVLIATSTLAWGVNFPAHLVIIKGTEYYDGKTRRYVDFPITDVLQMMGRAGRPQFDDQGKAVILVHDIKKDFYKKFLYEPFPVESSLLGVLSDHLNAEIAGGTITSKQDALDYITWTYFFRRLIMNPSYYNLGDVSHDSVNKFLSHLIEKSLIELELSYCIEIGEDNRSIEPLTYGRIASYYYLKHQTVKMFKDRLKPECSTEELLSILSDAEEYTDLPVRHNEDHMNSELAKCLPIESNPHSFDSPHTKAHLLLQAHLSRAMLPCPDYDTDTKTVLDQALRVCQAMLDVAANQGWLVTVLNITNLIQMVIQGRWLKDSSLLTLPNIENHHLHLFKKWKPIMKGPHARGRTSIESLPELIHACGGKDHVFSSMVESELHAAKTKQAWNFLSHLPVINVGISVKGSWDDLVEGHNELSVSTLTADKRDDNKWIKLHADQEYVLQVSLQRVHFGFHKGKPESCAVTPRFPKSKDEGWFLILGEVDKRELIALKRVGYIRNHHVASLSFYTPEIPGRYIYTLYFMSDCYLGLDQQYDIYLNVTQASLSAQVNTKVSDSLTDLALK

Binder | binding result [1] | binding result [2]
B1 | binds | 
B2 |  | binds
